Test results reported in paper PMC2150914.

Molecular target: taxol-stabilized microtubules polymerized in Xenopus egg extract (Xenopus (endogenous in Xenopus egg extract))
Experiment: co-sedimentation

percent bound: < 70%
Substance: X-p21-activated kinase (PAK)5, endogenous (natural protein)
